Assay results from patent US20230241113A1 (IMMATICS BIOTECHNOLOGIES, published 2023).

Target: T1, HLA-A*02:01 (human)
T1 construct: captured on streptavidin plates, detected with anti-β2m; also called peptide-receptive MHC molecules; MHC class I
Assay: UV-ligand exchange + anti-β2m ELISA; exchange yield grade: ≥10% +, ≥20% ++, ≥50 +++, ≥75% ++++
Method: The individual peptide-MHC complexes were produced by UV-ligand exchange, where a UV-sensitive peptide is cleaved upon UV-irradiation and exchanged with the peptide of interest as analyzed. Only peptide candidates that can effectively bind and stabilize the peptide-receptive MHC molecules prevent dissociation of the MHC complexes. To determine the yield of the exchange reaction, an ELISA was performed based on the detection of the light chain (β2m) of stabilized MHC complexes. The assay was performed as generally described in Rodenko et al. (Rodenko et al., 2006).
96 well MAXISorp plates (NUNC) were coated over night with 2 μg/ml streptavidin in PBS at room temperature, washed 4× and blocked for 1 h at 37° C. in 2% BSA containing blocking buffer. Refolded HLA-A*02:01/MLA-001 monomers served as standards, covering the range of 15-500 ng/ml. Peptide-MHC monomers of the UV-exchange reaction were diluted 100 fold in blocking buffer. Samples were incubated for 1 h at 37° C., washed four times, incubated with 2 μg/ml HRP conjugated anti-β2m for 1 h at 37° C., washed again and detected with TMB solution that is stopped with […]. Absorption was measured at 450 nm. Candidate peptides that show a high exchange yield (preferably higher than 50%, most preferred higher than 75%) are generally preferred for a generation and production of antibodies or fragments thereof, and/or T cell receptors or fragments thereof, as they show sufficient avidity to the MHC molecules and prevent dissociation of the MHC complexes.

A peptide exchange yield of at least 75% was found for KLLDFSTRI (also called KLLDFSTRI) [NUDCD2-001] in this work.

A peptide exchange yield of at least 75% was found for SLLDKLSGI (also called SLLDKLSGI) [altORF-008] in this work.

A peptide exchange yield of 50 to 75% was found for ALLPHAPEAV (also called ALLPHAPEAV) [altORF-009] in this work.

A peptide exchange yield of at least 75% was found for HLDSMNVSI (also called HLDSMNVSI) [altORF-010] in this work.

A peptide exchange yield of at least 75% was found for FLDEGSLLRL (also called FLDEGSLLRL) [altORF-011] in this work.

A peptide exchange yield of at least 75% was found for LLIEVSEEL (also called LLIEVSEEL) [altORF-012] in this work.

A peptide exchange yield of 20 to 50% was found for NLVMPLLHI (also called NLVMPLLHI) [altORF-013] in this work.

A peptide exchange yield of at least 75% was found for ALLDAEQSPVAL (also called ALLDAEQSPVAL) [altORF-014] in this work.

A peptide exchange yield of at least 75% was found for VLWDLRPSSLI (also called VLWDLRPSSLI) [altORF-015] in this work.

A peptide exchange yield of at least 75% was found for KMMTFFQGL (also called KMMTFFQGL) [altORF-016] in this work.

A peptide exchange yield of at least 75% was found for MLLPWLPKL (also called MLLPWLPKL) [altORF-017] in this work.

A peptide exchange yield of at least 75% was found for ALLDVLVKL (also called ALLDVLVKL) [COLPDG-001] in this work.

A peptide exchange yield of 20 to 50% was found for VLISLPGKV (also called VLISLPGKV) [altORF-018] in this work.

A peptide exchange yield of 50 to 75% was found for FVFISPSFL (also called FVFISPSFL) [altORF-019] in this work.

A peptide exchange yield of at least 75% was found for SLYDVPVGA (also called SLYDVPVGA) [altORF-020] in this work.

A peptide exchange yield of 20 to 50% was found for GLEVLDALL (also called GLEVLDALL) [altORF-021] in this work.

A peptide exchange yield of at least 75% was found for TLTSLNILL (also called TLTSLNILL) [altORF-022] in this work.

A peptide exchange yield of 20 to 50% was found for ISVLNLSAI (also called ISVLNLSAI) [altORF-023] in this work.

A peptide exchange yield of at least 75% was found for KLWTSLVNL (also called KLWTSLVNL) [altORF-024] in this work.

A peptide exchange yield of 20 to 50% was found for IAAGVPNTDA (also called IAAGVPNTDA) [altORF-025] in this work.

A peptide exchange yield of 50 to 75% was found for SQLEKPETA (also called SQLEKPETA) [altORF-026] in this work.

A peptide exchange yield of at least 75% was found for LLWEFPSMA (also called LLWEFPSMA) [altORF-027] in this work.

A peptide exchange yield of at least 75% was found for FLLVPSPIWQL (also called FLLVPSPIWQL) [altORF-001] in this work.

A peptide exchange yield of 20 to 50% was found for LLRLTLLPL (also called LLRLTLLPL) [altORF-028] in this work.

A peptide exchange yield of at least 75% was found for VVLPIVITL (also called VVLPIVITL) [altORF-029] in this work.

A peptide exchange yield of 50 to 75% was found for VLSVSAVLGA (also called VLSVSAVLGA) [altORF-030] in this work.

A peptide exchange yield of at least 75% was found for FASERPPSV (also called FASERPPSV) [altORF-031] in this work.

A peptide exchange yield of at least 75% was found for LLNVEPAGA (also called LLNVEPAGA) [altORF-032] in this work.

A peptide exchange yield of at least 75% was found for VLLNSNYPV (also called VLLNSNYPV) [altORF-033] in this work.

A peptide exchange yield of at least 75% was found for FQVTRTTGV (also called FQVTRTTGV) [altORF-034] in this work.

A peptide exchange yield of at least 75% was found for KILDEFYNV (also called KILDEFYNV) [altORF-035] in this work.

A peptide exchange yield of at least 75% was found for SLSAWLPSL (also called SLSAWLPSL) [altORF-036] in this work.

A peptide exchange yield of at least 75% was found for YIYEDEVRL (also called YIYEDEVRL) [altORF-037] in this work.

A peptide exchange yield of at least 75% was found for YLGDSHVLL (also called YLGDSHVLL) [altORF-002] in this work.

A peptide exchange yield of at least 75% was found for FTLPFLVNL (also called FTLPFLVNL) [altORF-038] in this work.

A peptide exchange yield of 50 to 75% was found for LMASEGIWESSL (also called LMASEGIWESSL) [altORF-039] in this work.

A peptide exchange yield of at least 75% was found for WITPVIPAL (also called WITPVIPAL) [altORF-040] in this work.

A peptide exchange yield of 20 to 50% was found for AIWSTILIA (also called AIWSTILIA) [altORF-041] in this work.

A peptide exchange yield of at least 75% was found for WLIPRQLAAA (also called WLIPRQLAAA) [altORF-042] in this work.

A peptide exchange yield of at least 75% was found for ALYHQSPLL (also called ALYHQSPLL) [altORF-043] in this work.

A peptide exchange yield of at least 75% was found for AMVEIIPKV (also called AMVEIIPKV) [altORF-044] in this work.

A peptide exchange yield of at least 75% was found for ALLPGVPGL (also called ALLPGVPGL) [altORF-045] in this work.

A peptide exchange yield of at least 75% was found for MLAEIHPKA (also called MLAEIHPKA) [altORF-046] in this work.

A peptide exchange yield of at least 75% was found for FLWDPRDVVL (also called FLWDPRDVVL) [altORF-047] in this work.

A peptide exchange yield of at least 75% was found for LVWEVVESV (also called LVWEVVESV) [altORF-003] in this work.

A peptide exchange yield of at least 75% was found for GLASYLDRV (also called GLASYLDRV) [altORF-048] in this work.

A peptide exchange yield of at least 75% was found for GLLTQVHIL (also called GLLTQVHIL) [altORF-049] in this work.

A peptide exchange yield of 20 to 50% was found for LAFVSHVLI (also called LAFVSHVLI) [altORF-050] in this work.

A peptide exchange yield of at least 75% was found for TISISLSSV (also called TISISLSSV) [altORF-051] in this work.

A peptide exchange yield of at least 75% was found for GLSPDQVFL (also called GLSPDQVFL) [altORF-052] in this work.

A peptide exchange yield of 50 to 75% was found for MVQQEKLFV (also called MVQQEKLFV) [altORF-053] in this work.

A peptide exchange yield of 50 to 75% was found for IITNLIVNI (also called IITNLIVNI) [altORF-054] in this work.

A peptide exchange yield of at least 75% was found for YVLMTSLLL (also called YVLMTSLLL) [altORF-055] in this work.

A peptide exchange yield of 20 to 50% was found for MIISHRALEL (also called MIISHRALEL) [altORF-056] in this work.
